Data: patent US20170000849A1, “CD300A RECEPTORS AS VIRUS ENTRY COFACTORS” (INSTITUT NATIONAL DE LA SANTE ET DE LA RECHERCHE MEDICALE …, priority 2013, published 2017)

Target: human CD300a expressed on Hek293T cells (HekCD300a) (human)
Test: cell-based or functional assay

## goat polyclonal antibody to CD300a (AF2640)
  inhibition of DV2 JAM infection of HekCD300a cells (flow cytometry): 80%
